Experimental data published in article PMC10923064.

What was measured:
[1] = molecular target: T1, human RPA (RPA70/RPA32/RPA14) (human, UniProt P27694;P15927;P35244 1-616;1-270;1-121); experiment: fluorescence anisotropy
[2] = molecular target: T1, human RPA (RPA70/RPA32/RPA14); experiment: stopped-flow Trp fluorescence

T1 sequence (P27694 whole entry, chain 1 of 3): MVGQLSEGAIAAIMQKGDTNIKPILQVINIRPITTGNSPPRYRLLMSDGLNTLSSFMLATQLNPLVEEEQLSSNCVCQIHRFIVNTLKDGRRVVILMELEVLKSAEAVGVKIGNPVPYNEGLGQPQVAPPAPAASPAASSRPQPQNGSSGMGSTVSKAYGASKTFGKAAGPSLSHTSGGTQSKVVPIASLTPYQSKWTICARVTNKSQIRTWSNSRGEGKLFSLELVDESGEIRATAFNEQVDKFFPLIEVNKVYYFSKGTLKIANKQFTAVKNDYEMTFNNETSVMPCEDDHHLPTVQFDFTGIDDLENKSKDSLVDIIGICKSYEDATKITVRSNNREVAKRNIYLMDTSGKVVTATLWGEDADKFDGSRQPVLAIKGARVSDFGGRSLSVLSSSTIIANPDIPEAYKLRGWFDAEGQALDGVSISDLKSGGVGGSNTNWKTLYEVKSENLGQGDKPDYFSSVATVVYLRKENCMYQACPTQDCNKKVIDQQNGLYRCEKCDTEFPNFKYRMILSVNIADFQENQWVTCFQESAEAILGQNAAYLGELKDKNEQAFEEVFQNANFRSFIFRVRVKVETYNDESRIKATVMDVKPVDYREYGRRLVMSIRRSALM
T1 sequence (P15927 whole entry, chain 2 of 3): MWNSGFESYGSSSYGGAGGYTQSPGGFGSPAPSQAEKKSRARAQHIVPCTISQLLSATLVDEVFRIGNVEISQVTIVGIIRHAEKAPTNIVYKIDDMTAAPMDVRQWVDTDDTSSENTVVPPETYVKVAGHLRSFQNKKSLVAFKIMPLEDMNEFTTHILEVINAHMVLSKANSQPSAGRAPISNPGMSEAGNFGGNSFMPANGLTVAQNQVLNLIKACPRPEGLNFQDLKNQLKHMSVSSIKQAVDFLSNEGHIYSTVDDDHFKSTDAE
T1 sequence (P35244 whole entry, chain 3 of 3): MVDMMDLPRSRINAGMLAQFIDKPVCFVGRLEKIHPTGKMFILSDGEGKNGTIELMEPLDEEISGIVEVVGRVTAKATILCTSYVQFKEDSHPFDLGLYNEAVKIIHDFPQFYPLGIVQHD

| Binder | binding result [1] | binding result [2] |
| --- | --- | --- |
| TTTTTTTTTTTTTTTTTTTTTTTTTTTTTTTTTTT (ssDNA) [5'-FAM-(dT)35] | binds | – |
| TTTTTTTTTTTTTTTTTTTTTTTTTTTTTTTTTTT (ssDNA) [(dT)35] | – | binds |
